This note sets out measurements from article PMC3962721.

Data set [1] concerns the target T1, DDB2 (FLAG-tagged, in DDB.com);DDB1;Cul4A;Roc1 (Homo sapiens?;Homo sapiens?;Homo …, UniProt Q92466;Q16531;Q13619;P62877 1-427;1-1140;1-759;1-108, |||). Put plainly: EMSA.
The target of data set [2] is T1, DDB2 (FLAG-tagged, in …). Kind of data set: competition.
The target of data set [3] is T1, DDB2 (FLAG-tagged, in …). Kind of data set: EMSA. This is another data set of the same source. (In general: Mobility shift assays separate free from complexed probe on a gel.)
Data set [4] has as its target T1, DDB2 (FLAG-tagged, in …). Kind of data set: competition. The source holds these as a separate data set.

T1 sequence (Q92466 whole entry, chain 1 of 4): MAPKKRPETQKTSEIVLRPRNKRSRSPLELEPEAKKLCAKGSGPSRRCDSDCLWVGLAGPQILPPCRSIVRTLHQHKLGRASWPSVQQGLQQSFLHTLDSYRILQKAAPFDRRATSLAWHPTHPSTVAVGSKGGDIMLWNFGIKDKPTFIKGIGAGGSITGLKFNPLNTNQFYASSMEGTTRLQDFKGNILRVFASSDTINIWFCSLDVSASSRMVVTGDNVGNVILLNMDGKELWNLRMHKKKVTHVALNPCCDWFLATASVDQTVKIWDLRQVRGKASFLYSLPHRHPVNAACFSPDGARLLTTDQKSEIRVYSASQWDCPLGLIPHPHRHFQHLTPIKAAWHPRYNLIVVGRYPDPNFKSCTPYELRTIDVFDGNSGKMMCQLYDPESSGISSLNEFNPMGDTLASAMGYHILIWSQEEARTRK
T1 sequence (Q16531 whole entry, chain 2 of 4): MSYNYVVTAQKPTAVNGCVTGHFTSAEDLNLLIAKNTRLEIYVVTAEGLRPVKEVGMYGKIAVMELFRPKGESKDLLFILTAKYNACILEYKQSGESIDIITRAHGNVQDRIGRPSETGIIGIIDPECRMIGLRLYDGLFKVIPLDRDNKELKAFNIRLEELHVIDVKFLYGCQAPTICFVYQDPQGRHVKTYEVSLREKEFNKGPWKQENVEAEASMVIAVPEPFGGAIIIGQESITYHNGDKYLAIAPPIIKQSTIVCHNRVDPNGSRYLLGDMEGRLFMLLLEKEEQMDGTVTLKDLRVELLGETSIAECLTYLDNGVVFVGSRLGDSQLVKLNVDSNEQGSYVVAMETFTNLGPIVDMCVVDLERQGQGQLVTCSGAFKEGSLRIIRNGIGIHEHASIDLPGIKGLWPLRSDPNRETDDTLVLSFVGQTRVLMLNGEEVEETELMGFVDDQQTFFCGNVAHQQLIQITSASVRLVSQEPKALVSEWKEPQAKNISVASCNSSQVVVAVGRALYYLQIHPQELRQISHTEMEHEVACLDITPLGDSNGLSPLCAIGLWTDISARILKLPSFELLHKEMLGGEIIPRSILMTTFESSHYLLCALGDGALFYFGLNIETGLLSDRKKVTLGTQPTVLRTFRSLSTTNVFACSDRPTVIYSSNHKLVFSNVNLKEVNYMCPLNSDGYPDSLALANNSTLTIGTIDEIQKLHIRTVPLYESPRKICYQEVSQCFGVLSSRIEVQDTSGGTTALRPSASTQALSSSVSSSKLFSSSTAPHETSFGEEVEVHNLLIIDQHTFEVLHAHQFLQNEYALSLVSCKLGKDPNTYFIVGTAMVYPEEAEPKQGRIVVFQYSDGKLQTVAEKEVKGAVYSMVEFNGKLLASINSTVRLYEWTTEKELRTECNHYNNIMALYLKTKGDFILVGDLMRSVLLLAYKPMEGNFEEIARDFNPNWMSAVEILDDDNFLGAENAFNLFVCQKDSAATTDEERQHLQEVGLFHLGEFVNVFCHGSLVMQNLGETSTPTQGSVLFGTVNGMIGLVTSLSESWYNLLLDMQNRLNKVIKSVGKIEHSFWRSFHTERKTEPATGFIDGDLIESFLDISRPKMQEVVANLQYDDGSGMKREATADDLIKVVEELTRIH
T1 sequence (Q13619 whole entry, chain 3 of 4): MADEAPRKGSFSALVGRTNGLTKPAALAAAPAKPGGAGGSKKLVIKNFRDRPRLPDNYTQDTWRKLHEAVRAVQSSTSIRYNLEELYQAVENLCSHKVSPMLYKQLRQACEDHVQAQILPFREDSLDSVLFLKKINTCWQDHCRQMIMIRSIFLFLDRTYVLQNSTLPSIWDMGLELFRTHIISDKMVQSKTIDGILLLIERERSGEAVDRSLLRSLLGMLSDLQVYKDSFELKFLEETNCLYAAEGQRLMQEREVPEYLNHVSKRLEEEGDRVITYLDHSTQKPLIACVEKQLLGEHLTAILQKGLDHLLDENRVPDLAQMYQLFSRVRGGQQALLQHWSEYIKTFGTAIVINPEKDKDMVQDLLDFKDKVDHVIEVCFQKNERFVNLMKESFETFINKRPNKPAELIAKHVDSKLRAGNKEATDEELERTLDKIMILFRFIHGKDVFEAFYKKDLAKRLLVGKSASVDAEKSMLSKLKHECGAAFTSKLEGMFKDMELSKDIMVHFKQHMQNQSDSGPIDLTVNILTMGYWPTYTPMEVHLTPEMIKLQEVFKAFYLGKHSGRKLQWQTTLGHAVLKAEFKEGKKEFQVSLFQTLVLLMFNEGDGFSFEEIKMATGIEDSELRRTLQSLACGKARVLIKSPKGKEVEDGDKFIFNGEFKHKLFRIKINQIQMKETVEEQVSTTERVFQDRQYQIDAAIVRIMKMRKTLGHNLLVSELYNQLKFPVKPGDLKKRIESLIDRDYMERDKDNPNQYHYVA
T1 sequence (P62877 whole entry, chain 4 of 4): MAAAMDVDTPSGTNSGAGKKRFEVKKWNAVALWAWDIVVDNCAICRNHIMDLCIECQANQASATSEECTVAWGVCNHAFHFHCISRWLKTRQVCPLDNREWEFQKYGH

B1: MnSOD probe (dsDNA)
DNA 1: GAGGCTAGCCTGCAGCCTCCTTTCTCC
DNA 2: GGAGAAAGGAGGCTGCAGGCTAGCCTC
For B1, in the data set with DDB2 (FLAG-tagged, in …) [1], the binding result is “binds”.

B2: Om (unlabeled mutant BCP1 competitor) (dsDNA)
DNA 1: ATTAGGATATTGAAGCCTTTCAAT
DNA 2: ATTGAAAGGCTTCAATATCCTAAT
Take B2: the binding result in the data set with DDB2 (FLAG-tagged, in …) [2] is “no binding”.

B3: Bcl-2 probe (BCP1) (dsDNA)
DNA 1: ATTAGGAGCTTGAAGCCTTTCAAT
DNA 2: ATTGAAAGGCTTCAAGCTCCTAAT
For the molecule B3, the binding result with DDB2 (FLAG-tagged, in …) [3] is “binds”.

B4: Ow (unlabeled wild-type BCP1 competitor) (dsDNA)
DNA 1: ATTAGGAGCTTGAAGCCTTTCAAT
DNA 2: ATTGAAAGGCTTCAAGCTCCTAAT
Consider B4, for which the binding result in the data set with DDB2 (FLAG-tagged, in …) [4] is listed as “binds”.
